The values below are quoted from earlier work in paper PMC3263801.

The target in the data set is hDM2 (Homo sapiens) (UniProt Q00987).
hDM2 (Homo sapiens), sequence (Q00987 whole entry): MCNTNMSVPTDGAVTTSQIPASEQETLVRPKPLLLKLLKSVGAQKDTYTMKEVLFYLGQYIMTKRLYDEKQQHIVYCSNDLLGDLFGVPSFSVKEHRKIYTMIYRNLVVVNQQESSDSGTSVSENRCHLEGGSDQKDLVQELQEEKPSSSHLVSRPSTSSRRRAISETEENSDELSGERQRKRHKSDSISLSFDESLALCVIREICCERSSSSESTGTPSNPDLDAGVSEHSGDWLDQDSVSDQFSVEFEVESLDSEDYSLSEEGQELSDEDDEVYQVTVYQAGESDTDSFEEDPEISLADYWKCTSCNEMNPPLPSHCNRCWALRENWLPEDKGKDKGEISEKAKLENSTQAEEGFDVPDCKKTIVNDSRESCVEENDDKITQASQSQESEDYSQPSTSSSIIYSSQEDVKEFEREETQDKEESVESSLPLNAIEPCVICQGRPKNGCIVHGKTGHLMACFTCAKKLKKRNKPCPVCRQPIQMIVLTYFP

Consider “stapled p53 peptide (from UniProt P04637)”, for which the dissociation constant (Kd) is 0.9 nM.
